Measured values taken from US20220185894A1 (F STAR THERAPEUTICS, published 2022).

T1: mouse LAG-3 expressed on cells (mouse, UniProt Q61790 24-521)
T1 construct: also called mLAG-3; murine LAG-3 HEK
T1 sequence: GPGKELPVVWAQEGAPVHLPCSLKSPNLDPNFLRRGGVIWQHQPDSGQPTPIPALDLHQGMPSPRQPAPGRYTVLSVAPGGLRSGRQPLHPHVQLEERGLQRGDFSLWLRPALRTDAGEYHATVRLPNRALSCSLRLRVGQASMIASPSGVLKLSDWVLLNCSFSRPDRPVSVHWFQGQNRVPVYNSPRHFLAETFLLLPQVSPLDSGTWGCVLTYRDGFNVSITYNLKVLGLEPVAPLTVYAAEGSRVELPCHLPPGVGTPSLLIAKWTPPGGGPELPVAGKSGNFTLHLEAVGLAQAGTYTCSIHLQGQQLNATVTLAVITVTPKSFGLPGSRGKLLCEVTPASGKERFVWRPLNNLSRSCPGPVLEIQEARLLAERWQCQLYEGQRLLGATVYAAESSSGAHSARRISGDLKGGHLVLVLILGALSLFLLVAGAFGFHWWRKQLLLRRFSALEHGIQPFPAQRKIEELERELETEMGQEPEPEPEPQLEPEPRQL

T2: human FcγRIIa (R&D Systems, 1330-CD) (human, UniProt P12318 36-218, limits assumed)
T2 construct: Bought recombinant protein
T2 sequence (looked up): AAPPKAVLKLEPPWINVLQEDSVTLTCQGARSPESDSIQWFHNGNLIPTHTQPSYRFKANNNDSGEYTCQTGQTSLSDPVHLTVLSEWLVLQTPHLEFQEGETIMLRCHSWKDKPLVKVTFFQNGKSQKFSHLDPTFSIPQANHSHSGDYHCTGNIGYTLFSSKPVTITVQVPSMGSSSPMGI

T3: human FcγRIIb/c (R&D Systems, 1875-CD) (human, UniProt P31994 46-217)
T3 construct: Bought recombinant protein
T3 sequence (looked up): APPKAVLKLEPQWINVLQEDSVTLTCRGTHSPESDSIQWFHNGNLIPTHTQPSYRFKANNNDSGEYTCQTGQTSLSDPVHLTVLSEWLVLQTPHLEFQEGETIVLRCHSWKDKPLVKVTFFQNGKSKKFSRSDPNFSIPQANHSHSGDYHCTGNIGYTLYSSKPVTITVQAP

T4: cynomolgus LAG-3 expressed on cells (cynomolgus monkey, UniProt P18627 24-525 (human entry))
T4 construct: also called cLAG-3; cyno LAG-3
T4 chain: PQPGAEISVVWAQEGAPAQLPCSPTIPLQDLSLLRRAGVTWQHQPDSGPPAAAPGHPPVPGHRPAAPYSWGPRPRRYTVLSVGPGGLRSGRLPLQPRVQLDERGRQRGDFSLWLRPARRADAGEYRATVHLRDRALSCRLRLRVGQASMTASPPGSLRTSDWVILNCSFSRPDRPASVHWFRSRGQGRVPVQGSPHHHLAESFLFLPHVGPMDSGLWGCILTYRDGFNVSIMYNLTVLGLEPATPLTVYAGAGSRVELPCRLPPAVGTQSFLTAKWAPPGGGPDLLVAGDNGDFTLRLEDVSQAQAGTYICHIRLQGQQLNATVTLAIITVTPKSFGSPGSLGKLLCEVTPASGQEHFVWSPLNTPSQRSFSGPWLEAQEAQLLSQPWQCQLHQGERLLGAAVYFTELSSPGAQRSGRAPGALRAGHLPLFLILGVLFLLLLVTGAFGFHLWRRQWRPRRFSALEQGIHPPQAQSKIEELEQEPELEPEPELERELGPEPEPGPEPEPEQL


Tests used:
[1] = target: T1, mouse LAG-3 expressed on cells; assay: flow cytometry on HEK cells expressing mouse LAG-3
Procedure: HEK cells expressing mLAG-3 grown in DMEM (Life Technologies, 61965-026) containing 10% FBS (Life Technologies, 10270-1-6), 100 μg/ml Hygromycin B (Melford Laboratories Ltd, Z2475), 15 μg/ml Blasticidin (Melford Laboratories Ltd, B1105) and 1 μg/ml Doxycyclin (Sigma, D9891) were detached from tissue culture flasks using cell dissociation buffer (Life Technologies, 13151-014). Cells were collected by centrifuged at 1500 rpm for 3 min at 4° C. to pellet the cells and then resuspended in 1×DPBS then seeded in V-bottom 96-well plates (Costar, 3897) at 1.2×10⁵ cells/well in 30 μl. A 1:1 volume of a dilution series of the mAb² (or control mAb) was added and incubated with the cells for 1 h at 4° C. The plates were washed and secondary antibody (Anti-human Fc-488, Jackson ImmunoResearch, 109-546-098) was diluted 1:1000 in PBS and 60 μl was added to the cells for 30 min at 4° C. (plates were kept in the dark). The plates were then washed and the cells resuspended in 60 μl PBS containing 1 μg/ml DAPI (Biotium, 40043). The plates were read using Canto II flow cytometer (BD Bioscience). Dead cells were excluded and the fluorescence in the FITC channel (488 nm/530/30) was measured. The data was fitted using log (agonist) vs response in GraphPad Prism Software.

[2] = target: T5, human FcγRI (R&D Systems, 1257-FC) (human, UniProt P12314 16-288); assay: SPR, Biacore T200; FcγR immobilised, 200 µg/ml injected
T5 construct: Bought recombinant protein
Procedure: (§1) The introduction of the LALA mutation in the CH2 domain of human IgG1 is known to reduce Fc γ receptor binding (Bruhns, P., et al. (2009); and Xu, D. et al. (2000)). […] The human FcγR binding assay was performed on a Biacore T200 instrument (GE Healthcare) using the Fcabs in the mock mAb² format. […] For each immobilized chip a flow cell was left blank for background subtraction. FcγR were immobilized using a concentration of 5 μg/ml in sodium acetate pH5 (ForteBio, 18-1069) and injected at a flow rate of 10 μl/min in 15 second cycles until the required immobilization level was reached.
(§2) The flow cells were regenerated by injecting 10 mM sodium hydroxide (VWR, 28244.262) at a flow rate of 100 μl/min for 30 seconds. The data analysis was performed with BiaEvaluation software version 3.2 RC1 by double referencing against the blank flow cell (without immobilized FcγR) and subtracting a buffer cycle from test mAb².

[3] = target: T6, human FcγRIIIa (R&D Systems, 4325-FC) (human, UniProt P08637 17-208); assay: as above
T6 construct: Bought recombinant protein
Procedure: as §1, §2

[4] = target: T2, human FcγRIIa (R&D Systems, 1330-CD); assay: SPR, Biacore T200; FcγR immobilised, 500 µg/ml injected
Procedure: as §1, §2

[5] = target: T3, human FcγRIIb/c (R&D Systems, 1875-CD); assay: as above
Procedure: as §1, §2

[6] = target: T4, cynomolgus LAG-3 expressed on cells; assay: flow cytometry on DO11.10 cells expressing cynomolgus LAG-3
Procedure: DO11.10:LAG-3 cell suspensions were prepared in PBS+2% BSA (Sigma, A7906) and seeded at […] with 50 μl/well in V-bottomed 96-well plates (Costar, 3897). […] The plates were washed and 100 μl/well of secondary antibody (anti-human Fc-488 antibody, Jackson ImmunoResearch, 109-546-098) diluted 1:1000 in PBS+2% BSA was then added and incubated for 30 mins at 4° C. in the dark. The plates were washed and resuspended in 100 μl of PBS containing DAPI (Biotium, 40043) at […]. The plates were read using Canto II flow cytometer (BD Bioscience). The dead cells were excluded and the fluorescence in the FITC channel (488 nm/530/30) was measured. The data was fit using log (agonist) vs response in GraphPad Prism Software.

T5 sequence (P12314 16-288 limits assumed): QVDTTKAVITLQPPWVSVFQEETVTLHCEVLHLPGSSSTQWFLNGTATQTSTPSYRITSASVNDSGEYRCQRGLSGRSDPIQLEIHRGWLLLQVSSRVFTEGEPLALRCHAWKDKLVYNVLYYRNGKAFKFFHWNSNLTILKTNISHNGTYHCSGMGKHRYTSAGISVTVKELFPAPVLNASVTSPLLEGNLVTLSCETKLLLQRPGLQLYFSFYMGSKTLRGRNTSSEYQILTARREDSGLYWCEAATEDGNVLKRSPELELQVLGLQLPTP
T6 sequence (P08637 17-208 limits assumed): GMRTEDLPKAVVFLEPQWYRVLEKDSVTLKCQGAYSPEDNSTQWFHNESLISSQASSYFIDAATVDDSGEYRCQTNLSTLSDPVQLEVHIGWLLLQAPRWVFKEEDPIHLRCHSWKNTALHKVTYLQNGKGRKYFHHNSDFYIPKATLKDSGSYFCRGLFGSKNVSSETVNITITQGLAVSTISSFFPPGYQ

| Binder | EC50 [1] | binding response at end of association (RU) [2] | binding response at end of association (RU) [3] | binding response at end of association (RU) [4] | binding response at end of association (RU) [5] | EC50 [6] | binding result [1] |
| --- | --- | --- | --- | --- | --- | --- | --- |
| anti-human LAG-3/FITC mock mAb2 FS18-7-9/4420 comprising LALA mutation (bispecific antibody, human IgG1, kappa, L234A L235A, Human IgG1 format; also called FS18-7-9/4420LALA; FS18-7-09/4420LALA) heavy: EVKLDETGGGLVQPGRPMKLSCVASGFTFSDYWMNWVRQSPEKGLEWVAQIRNKPYNYETYYSDSVKGRFTISRDDSKSSVYLQMNNLRVEDMGIYYCTGSYYGMDYWGQGTSVTVSSASTKGPSVFPLAPSSKSTSGGTAALGCLVKDYFPEPVTVSWNSGALTSGVHTFPAVLQSSGLYSLSSVVTVPSSSLGTQTYICNVNHKPSNTKVDKKVEPKSCDKTHTCPPCPAPEAAGGPSVFLFPPKPKDTLMISRTPEVTCVVVDVSHEDPEVKFNWYVDGVEVHNAKTKPREEQYNSTYRVVSVLTVLHQDWLNGKEYKCKVSNKALPAPIEKTISKAKGQPREPQVYTLPPSWDEPWGEDVSLTCLVKGFYPSDIAVEWESNGQPENNYKTTPPVLDSDGSFFLYSKLTVPYDRWVWPDEFSCSVMHEALHNHYTQKSLSLSPG light: DVVMTQTPLSLPVSLGDQASISCRSSQSLVHSNGNTYLRWYLQKPGQSPKVLIYKVSNRFSGVPDRFSGSGSGTDFTLKISRVEAEDLGVYFCSQSTHVPWTFGGGTKLEIKRTVAAPSVFIFPPSDEQLKSGTASVVCLLNNFYPREAKVQWKVDNALQSGNSQESVTEQDSKDSTYSLSSTLTLSKADYEKHKVYACEVTHQGLSSPVTKSFNRGEC | 19 nM | 1.4 RU | 6.6 RU | -9.8 RU | -8.5 RU | 0.6 nM | – |
| control anti-human LAG-3 mAb 25F7 (antibody, human IgG1, kappa, L234A L235A, V domains shown, also called benchmark anti-human LAG-3 mAb) VH: QVQLQQWGAGLLKPSETLSLTCAVYGGSFSDYYWNWIRQPPGKGLEWIGEINHRGSTNSNPSLKSRVTLSLDTSKNQFSLKLRSVTAADTAVYYCAFGYSDYEYNWFDPWGQGTLVTVSS VL: EIVLTQSPATLSLSPGERATLSCRASQSISSYLAWYQQKPGQAPRLLIYDASNRATGIPARFSGSGSGTDFTLTISSLEPEDFAVYYCQQRSNWPLTFGQGTNLEIKR | – | – | – | – | – | – | no binding |

Continued, values first:

| EC50 [1] | binding response at end of association (RU) [2] | binding response at end of association (RU) [3] | binding response at end of association (RU) [4] | binding response at end of association (RU) [5] | EC50 [6] | binding result [1] | Binder |
| --- | --- | --- | --- | --- | --- | --- | --- |
| – | -0.9 RU | 0.7 RU | -10 RU | -8.5 RU | 0.5 nM | – | anti-human LAG-3/FITC mock mAb2 FS18-7-62/4420 comprising LALA mutation (bispecific antibody, human IgG1, kappa, L234A L235A, also called FS18-7-62/4420LALA; FS18-7-62 in mock mAb2 format) heavy: EVKLDETGGGLVQPGRPMKLSCVASGFTFSDYWMNWVRQSPEKGLEWVAQIRNKPYNYETYYSDSVKGRFTISRDDSKSSVYLQMNNLRVEDMGIYYCTGSYYGMDYWGQGTSVTVSSASTKGPSVFPLAPSSKSTSGGTAALGCLVKDYFPEPVTVSWNSGALTSGVHTFPAVLQSSGLYSLSSVVTVPSSSLGTQTYICNVNHKPSNTKVDKKVEPKSCDKTHTCPPCPAPEAAGGPSVFLFPPKPKDTLMISRTPEVTCVVVDVSHEDPEVKFNWYVDGVEVHNAKTKPREEQYNSTYRVVSVLTVLHQDWLNGKEYKCKVSNKALPAPIEKTISKAKGQPREPQVYTLPPSWDEPWGEDVSLTCLVKGFYPSDIAVEWESNGIPEWNYKTTPPVLDSDGSFFLYSKLTVPYDRWVWPDEFSCSVMHEALHNHYTQKSLSLSPG light: DVVMTQTPLSLPVSLGDQASISCRSSQSLVHSNGNTYLRWYLQKPGQSPKVLIYKVSNRFSGVPDRFSGSGSGTDFTLKISRVEAEDLGVYFCSQSTHVPWTFGGGTKLEIKRTVAAPSVFIFPPSDEQLKSGTASVVCLLNNFYPREAKVQWKVDNALQSGNSQESVTEQDSKDSTYSLSSTLTLSKADYEKHKVYACEVTHQGLSSPVTKSFNRGEC |
| – | -0.3 RU | – | -10.7 RU | -9.2 RU | 0.5 nM | – | anti-human LAG-3/FITC mock mAb2 FS18-7-78/4420 comprising LALA mutation (bispecific antibody, human IgG1, kappa, L234A L235A, also called FS18-7-78/4420LALA; FS18-7-78 in mock mAb2 format) heavy: EVKLDETGGGLVQPGRPMKLSCVASGFTFSDYWMNWVRQSPEKGLEWVAQIRNKPYNYETYYSDSVKGRFTISRDDSKSSVYLQMNNLRVEDMGIYYCTGSYYGMDYWGQGTSVTVSSASTKGPSVFPLAPSSKSTSGGTAALGCLVKDYFPEPVTVSWNSGALTSGVHTFPAVLQSSGLYSLSSVVTVPSSSLGTQTYICNVNHKPSNTKVDKKVEPKSCDKTHTCPPCPAPEAAGGPSVFLFPPKPKDTLMISRTPEVTCVVVDVSHEDPEVKFNWYVDGVEVHNAKTKPREEQYNSTYRVVSVLTVLHQDWLNGKEYKCKVSNKALPAPIEKTISKAKGQPREPQVYTLPPSWDEPWGEDVSLTCLVKGFYPSDIAVEWESNGYKEENYKTTPPVLDSDGSFFLYSKLTVPYDRWVWPDEFSCSVMHEALHNHYTQKSLSLSPG light: DVVMTQTPLSLPVSLGDQASISCRSSQSLVHSNGNTYLRWYLQKPGQSPKVLIYKVSNRFSGVPDRFSGSGSGTDFTLKISRVEAEDLGVYFCSQSTHVPWTFGGGTKLEIKRTVAAPSVFIFPPSDEQLKSGTASVVCLLNNFYPREAKVQWKVDNALQSGNSQESVTEQDSKDSTYSLSSTLTLSKADYEKHKVYACEVTHQGLSSPVTKSFNRGEC |
